Laboratory results published in patent US20260234258A1 (REPERTOIRE IMMUNE MEDICINES, published 2026).

B1: mCD8 IgG IL2 (HC) (YTS105) (antibody)
heavy: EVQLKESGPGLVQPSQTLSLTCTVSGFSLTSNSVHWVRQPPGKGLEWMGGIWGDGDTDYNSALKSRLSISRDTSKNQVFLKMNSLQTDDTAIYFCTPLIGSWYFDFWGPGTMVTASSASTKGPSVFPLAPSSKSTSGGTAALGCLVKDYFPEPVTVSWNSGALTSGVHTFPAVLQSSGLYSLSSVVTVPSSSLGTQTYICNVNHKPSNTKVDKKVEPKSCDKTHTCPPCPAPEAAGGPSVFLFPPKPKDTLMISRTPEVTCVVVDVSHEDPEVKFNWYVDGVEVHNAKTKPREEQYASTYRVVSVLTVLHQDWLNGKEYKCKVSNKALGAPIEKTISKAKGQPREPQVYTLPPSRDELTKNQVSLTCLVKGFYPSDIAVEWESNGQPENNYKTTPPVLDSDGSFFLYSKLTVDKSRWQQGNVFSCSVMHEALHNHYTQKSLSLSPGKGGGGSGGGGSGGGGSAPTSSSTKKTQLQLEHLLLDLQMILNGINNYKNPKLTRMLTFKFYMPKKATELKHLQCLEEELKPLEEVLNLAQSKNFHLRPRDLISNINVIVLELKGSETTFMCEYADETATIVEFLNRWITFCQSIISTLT
light: DIVMTQSPSSLAVSAGERVTLNCKASQNVRNNIAWYQQKPGQSPKLLIYYASYRYTGVPDRFTGDGFGTDFTLAINSVQADDAAFYYCQRIYNSPYTFGAGTKLELIRTVAAPSVFIFPPSDEQLKSGTASVVCLLNNFYPREAKVQWKVDNALQSGNSQESVTEQDSKDSTYSLSSTLTLSKADYEKHKVYACEVTHQGLSSPVTKSFNRGEC
notes: Anti-mouse CD8 IgG (clone YTS105) with human IL-2 on the C-terminus of each heavy chain
B2: mCD8IgG (anti-mouse CD8 antibody control, clone YTS105) (antibody, not shown: a dimerising Fc or GST)
heavy: EVQLKESGPGLVQPSQTLSLTCTVSGFSLTSNSVHWVRQPPGKGLEWMGGIWGDGDTDYNSALKSRLSISRDTSKNQVFLKMNSLQTDDTAIYFCTPLIGSWYFDFWGPGTMVTASSASTKGPSVFPLAPSSKSTSGGTAALGCLVKDYFPEPVTVSWNSGALTSGVHTFPAVLQSSGLYSLSSVVTVPSSSLGTQTYICNVNHKPSNTKVDKKVEPKSC
light: B1 light
notes: Control without IL-2
B3: mCD8 Fab Fc IL2 (LC) (YTS105) (antibody, human IgG1, kappa, L234A L235A, N297A)
heavy: EVQLKESGPGLVQPSQTLSLTCTVSGFSLTSNSVHWVRQPPGKGLEWMGGIWGDGDTDYNSALKSRLSISRDTSKNQVFLKMNSLQTDDTAIYFCTPLIGSWYFDFWGPGTMVTASSASTKGPSVFPLAPSSKSTSGGTAALGCLVKDYFPEPVTVSWNSGALTSGVHTFPAVLQSSGLYSLSSVVTVPSSSLGTQTYICNVNHKPSNTKVDKKVEPKSCDKTHTCPPCPAPEAAGGPSVFLFPPKPKDTLMISRTPEVTCVVVDVSHEDPEVKFNWYVDGVEVHNAKTKPREEQYASTYRVVSVLTVLHQDWLNGKEYKCKVSNKALGAPIEKTISKAKGQPREPQVYTLPPSRDELTKNQVSLWCLVKGFYPSDIAVEWESNGQPENNYKTTPPVLDSDGSFFLYSKLTVDKSRWQQGNVFSCSVMHEALHNHYTQKSLSLSPGK
chain: DKTHTCPPCPAPEAAGGPSVFLFPPKPKDTLMISRTPEVTCVVVDVSHEDPEVKFNWYVDGVEVHNAKTKPREEQYASTYRVVSVLTVLHQDWLNGKEYKCKVSNKALGAPIEKTISKAKGQPREPQVYTLPPSRDELTKNQVSLSCAVKGFYPSDIAVEWESNGQPENNYKTTPPVLDSDGSFFLVSKLTVDKSRWQQGNVFSCSVMHEALHNHYTQKSLSLSPGK
light: not shown
notes: One-armed Fab-Fc (clone YTS105) with human IL-2 on the C-terminus of the light chain; also called mCD8 Fc-IL2(LC); CD8Fc-IL2
B4: mCD8 Fab IL2 (LC) (YTS105) (Fab)
heavy: B2 heavy
light: not shown
notes: Anti-mouse CD8 Fab (clone YTS105) with human IL-2 fused to the C-terminus of the light chain
B5: hCD8 IgG IL2 1x (HC) (VH6/VK3) (antibody)
heavy 1: not shown
heavy 2: EVQLVQSGAEVKKPGATVKISCKASGYTFTDFTMHWVQQAPGKGLEWIGLVNPNNGGNIYAEKFQGRVTLTVDTSTSTAYMELSSLRSEDTAVYYCGRVPLYTSHGMDYWGQGTLVTVSSASTKGPSVFPLAPSSKSTSGGTAALGCLVKDYFPEPVTVSWNSGALTSGVHTFPAVLQSSGLYSLSSVVTVPSSSLGTQTYICNVNHKPSNTKVDKKVEPKSCDKTHTCPPCPAPEAAGGPSVFLFPPKPKDTLMISRTPEVTCVVVDVSHEDPEVKFNWYVDGVEVHNAKTKPREEQYASTYRVVSVLTVLHQDWLNGKEYKCKVSNKALGAPIEKTISKAKGQPREPQVYTLPPSRDELTKNQVSLSCAVKGFYPSDIAVEWESNGQPENNYKTTPPVLDSDGSFFLVSKLTVDKSRWQQGNVFSCSVMHEALHNHYTQKSLSLSPGK
light: EIVLTQSPATLSLSPGERATISCRASESVDSYDINSMHWYQQKPGQAPRLLIYRASHLQSGIPARFSGSGSRTDFTLTISSLEPEDFATYYCQQSNEDPLTFGQGTKLEIKRTVAAPSVFIFPPSDEQLKSGTASVVCLLNNFYPREAKVQWKVDNALQSGNSQESVTEQDSKDSTYSLSSTLTLSKADYEKHKVYACEVTHQGLSSPVTKSFNRGEC
notes: Humanized 02A01 (VH6/VK3) anti-human CD8 IgG, knob-in-hole, one human IL-2 on the C-terminus of the knob heavy chain; also called hCD8 IgG IL2 1×(HC)

Experiments:
[1] = target: T1, mouse CD8 (on CD8 T cells of mouse splenocytes) (mouse, UniProt P01731 28-247); assay: flow cytometry on mouse splenocytes, gated cell types; IL2 loading detected with anti-IL2; median fluorescence intensity
T1 construct: whole, on cells; also called mCD8
T1 sequence (P01731 28-247): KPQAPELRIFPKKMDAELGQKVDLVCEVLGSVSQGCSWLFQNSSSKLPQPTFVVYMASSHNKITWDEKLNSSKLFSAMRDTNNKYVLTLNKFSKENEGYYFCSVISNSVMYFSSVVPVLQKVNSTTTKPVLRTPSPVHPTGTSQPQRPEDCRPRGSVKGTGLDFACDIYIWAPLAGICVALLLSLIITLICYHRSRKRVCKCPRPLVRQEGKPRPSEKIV
Experimental: (§1) Anti-mouse CD8-human IL2 molecules were evaluated for their ability to specifically bind and load IL2 on CD8 T cells. Briefly, 1×10⁵ mouse splenocytes were incubated with indicated CD8-IL2 (human FC receptor) molecules from one of the concentrations ranging from 0.05 pM to 500 nM. Anti-mouse CD8 antibody was used as control. Following one hour incubation with molecules, splenocytes were washed twice with RPMI complete medium and once with PBS. The washed splenocytes were stained with anti-TL2 (MQ1-17H12), anti-human kappa (MHK-49) and lineage surface makers CD4(RM4-4), NK1.1(PK136) and CD19(6D5) for 20 minutes, after which the cells were washed and analyzed using flow cytometer. Mean fluorescence intensity data was analyzed using four parameter nonlinear regression method to calculated binding affinity in GraphPad prism.

[2] = target: T1, mouse CD8 (on CD8 T cells of mouse …); assay: cell-based or functional assay
[3] = target: T1, mouse CD8 (on CD8 T cells of mouse …); assay: flow cytometry on mouse splenocytes, CD8 T cells; IL2 loading detected with anti-IL2; median fluorescence intensity
Experimental: as §1

[4] = target: T1, mouse CD8 (on CD8 T cells of mouse …); assay: flow cytometry on mouse splenocytes, CD8 T cells; bound molecule detected with anti-human kappa; median fluorescence intensity
Experimental: as §1

[5] = target: T2, human CD8 (on CD8 T cells of human PBMC) (human, UniProt P01732 22-235); assay: flow cytometry on human PBMC, gated cell types; IL2 loading detected with anti-IL2; MFI
T2 construct: The assay used native CD8 on human PBMC; also called hCD8; NP_001139345.1
T2 sequence (P01732 22-235 limits assumed): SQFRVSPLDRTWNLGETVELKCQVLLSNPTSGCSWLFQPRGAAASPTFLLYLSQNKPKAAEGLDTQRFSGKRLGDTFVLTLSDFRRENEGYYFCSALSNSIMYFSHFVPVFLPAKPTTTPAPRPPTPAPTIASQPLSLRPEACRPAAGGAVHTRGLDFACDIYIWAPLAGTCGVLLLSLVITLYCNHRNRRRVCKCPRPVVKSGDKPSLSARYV
Experimental: (§2) Anti-human CD8-human IL2 molecules were evaluated for their ability to specifically bind and load IL2 on CD8 T cells. Briefly, […] human PBMC were co-cultured with indicated CD8-IL2 (human FC receptor) molecules from one of the concentrations ranging from 0.05 pM to 0.4 nM. Following one hour incubation with molecules, PBMC were washed twice with RPMI complete medium and washed once with PBS. The washed cells were stained with anti-IL2 (MQ1-17H12), anti-human kappa (MHK-49) and lineage surface markers CD3(UCHT1), CD4(SK3) and NK(HCD56) for 20 minutes, after which the cells were washed and analyzed using a flow cytometer. The binding affinity was quantified and represented as mean fluorescence intensity (MFI).

[6] = target: T2, human CD8 (on CD8 T cells of human PBMC); assay: flow cytometry on human PBMC, CD8 T cells; bound molecule detected with anti-human kappa; MFI
Experimental: as §2

[7] = target: T2, human CD8 (on CD8 T cells of human PBMC); assay: cell-based or functional assay
[8] = target: T2, human CD8 (on CD8 T cells of human PBMC); assay: cell-based or functional assay; remark: listed apart in the source

Binder	EC50 (read off the curve) [1]	Percentage of CD8 T Cell expansion at 32 pm [2]	Percentage of CD8 T Cell expansion at 160 pm [2]	EC50 (read off the curve) [3]	EC50 (read off the curve) [4]	EC50 (read off the curve) [5]	EC50 (read off the curve) [6]	EC50 pSTAT5 Activation, CD8+ T cells [7]	EC50 of Proliferation (percentage Ki67), CD8+ T cells [8]
B1	~50 pM	46.5%	63.2%	~50 pM	~40 pM	–	–	–	–
B2	–	–	–	–	~40 pM	–	–	–	–
B3	~400 pM	56.1%	60.6%	~800 pM	~700 pM	–	–	–	–
B4	~300 pM	56.4%	59.7%	~600 pM	~500 pM	–	–	–	–
B5	–	–	–	–	–	~30 pM	~30 pM	0.448 pM	69 pM
